Biological target: MERS-CoV spike receptor binding domain (RBD), residues 367–606, His-tagged (MERS-CoV), K0BRG7
Test: SPR
Conditions: remark: other sources report otherwise

B1: human CD26 (dipeptidyl peptidase 4), residues 39–766, His-tagged, P27487 39-766 (receptor)
chain: SRKTYTLTDYLKNTYRLKLYSLRWISDHEYLYKQENNILVFNAEYGNSSVFLENSTFDEFGHSINDYSISPDGQFILLEYNYVKQWRHSYTASYDIYDLNKRQLITEERIPNNTQWVTWSPVGHKLAYVWNNDIYVKIEPNLPSYRITWTGKEDIIYNGITDWVYEEEVFSAYSALWWSPNGTFLAYAQFNDTEVPLIEYSFYSDESLQYPKTVRVPYPKAGAVNPTVKFFVVNTDSLSSVTNATSIQITAPASMLIGDHYLCDVTWATQERISLQWLRRIQNYSVMDICDYDESSGRWNCLVARQHIEMSTTGWVGRFRPSEPHFTLDGNSFYKIISNEEGYRHICYFQIDKKDCTFITKGTWEVIGIEALTSDYLYYISNEYKGMPGGRNLYKIQLSDYTKVTCLSCELNPERCQYYSVSFSKEAKYYQLRCSGPGLPLYTLHSSVNDKGLRVLEDNSALDKMLQNVQMPSKKLDFIILNETKFWYQMILPPHFDKSKKYPLLLDVYAGPCSQKADTVFRLNWATYLASTENIIVASFDGRGSGYQGDKIMHAINRRLGTFEVEDQIEAARQFSKMGFVDNKRIAIWGWSYGGYVTSMVLGSGSGVFKCGIAVAPVSRWEYYDSVYTERYMGLPTPEDNLDHYRNSTVMSRAENFKQVEYLLIHGTADDNVHFQQSAQISKALVDVGVDFQAMWYTDEDHGIASSTAHQHIYTHMSHFIKQCFSLP
modifications: here or on the partner: N229-linked carbohydrate
Q: With B1 as the binder, how does the Kd read?
A: The Kd was 16.7 nM.

Q: What about the koff of the same binder?
A: The koff was 0.00299 s⁻¹.

Q: What about the kon of the same binder?
A: Its kon is 179000 M⁻¹ s⁻¹.

Source: article PMC7095341
